Test results from US20110160440A1 (GENENCOR INTERNATIONAL, published 2011).
Substitutions are numbered along the chain they refer to.

B1: CAB1.7 (clone pSW155.17) (scFv)
chain: QVQLQQSGAELVKSGGSVKLSCTASGFNIKDSYMHWVRQGPEQGLEWIGWIDPENGDTEYAPKFQGKATFTTDTSSNTAYLQLSSLTSEDTAVYYCNEGLPLGAIYNDYWGQGTTVTVSSGGGGSGGGGSGGGGSENVLTQSPAIVSASPGEKVTITCSASSAVYAMHWFQQKPGTSPKLVIYDTSNLASGVPARFSGSGSGTSYSLTISRMEAEDAATYYCQQRDSYPLTFGAGTKLELDRAATPVSEKQLAEVVANTITPLMKAQSVPGMAVAVIYQGKPHYYTFGKADIAANKPVTPQTLFELGSISKTFTGVLGGDAIARGEISLDDAVTRYWPQLTGKQWQGIRMLDLATYTAGGLPLQVPDEVTDNASLLRFYQNWQPQWKPGTTRLYANASIGLFGALAVKPSGMPYEQAMTTRVLKPLKLDHTWINVPKAEEAHYAWGYRDGKAVRVSPGMLDAQAYGVKTNVQDMANWVMANMAPENVADASLKQGIALAQSRYWRIGSMYQGLGWEMLNWPVEANTVVETSFGNVALAPLPVAEVNPPAPPVKASWVHKTGSTGGFGSYVAFIPEKQIGIVMLANTSYPNPARVEAAYHILEALQ
notes: scFv-BLA fusion
B2: NA08.9 (scFv)
chain: B1 chain with L100T, L102T, A104P, I105Y, N107F, A163S, Y165S, D184S, D226S, D241K
B3: NA08.51 (scFv)
chain: B1 chain with L100T, L102T, A104H, I105Y, N107F, A163S, Y165S, D184S, D226S, D241K
B4: NA08.17 (scFv)
chain: QVQLQQSGAELVKSGGSVKLSCTASGFNIKDSYMHWVRQGPEQGLEWIGHIDPENGDTEYAPKFQGKATFTTDTSSNTAYLQLSSLTSEDTAVYYCNEGTPTGPYYFDYWGQGTTVTVSSGGGGSGGGGSGGGGSENVLTQSPAIVSASPGEKVTITCSASSSVSYMHWFQQKPGTSPKLVIYDTSNLASGVPARFSGSGSGTSYSLTISRMEAEDAATYYCQQRSSYPLTFGAGTKLELKRAATPVSEKQLAEVVANTITPLMKAQSVPGMAVAVIYQGKPHYYTFGKADIAANKPVTPQTLFELGSISKTFTGVLGGDAIARGEISLDDAVTRYWPQLTGKQWQGIRMLDLATYTAGGLPLQVPDEVTDNASLLRFYQNWQPQWKPGTTRLYANASIGLFGALAVKPSGMPYEQAMTTRVLKPLKLDHTWINVPKAEEAHYAWGYRDGKAVRVSPGMLDAQAYGVKTNVQDMANWVMANMAPENVADASLKQGIALAQSRYWRIGSMYQGLGWEMLNWPVEANTVVETSFGNVALAPLPVAEVNPPAPPVKASWVHKTGSTGGFGSYVAFIPEKQIGIVMLANTSYPNPARVEAAYHILEALQ
B5: NA08.14 (scFv)
chain: B4 chain with H50W, P101D, D184S
B6: NA08.45 (scFv)
chain: B4 chain with H50W, T102D, Y166A, D184S
B7: NA08.24 (scFv)
chain: B4 chain with H50W, T102D, D184S, S226D
B8: NA08.4 (scFv)
chain: B4 chain with H50W, T100D, D184S, S190D
B9: NA08.3 (scFv)
chain: B4 chain with H50W, D184S, S190D, S226D
B10: NA08.64 (scFv)
chain: B4 chain with H50W, Q65D, Y166A, D184S
B11: NA08.12 (scFv)
chain: B4 chain with H50W, T102H, Y166A, D184S, S226D
B12: NA08.1 (scFv)
chain: B4 chain with Y166A, D184S
B13: NA08.13 (scFv)
chain: B4 chain with H50W, Q65H, S226D
B14: NA05.6 (CAB1.1) (scFv)
chain: B4 chain with Q3K, V37L, H50W, V146M, D184S
notes: also called pNA05.6
B15: NA05.10 (scFv)
chain: B4 chain with K13R, G16T, H50W, V146M, F170Y, D184S
B16: NA05.8 (scFv)
chain: B4 chain with Q3K, G16T, V37L, H50W, V146M, F170Y, V181W, D184S, A234G
B17: NA05.12 (scFv)
chain: B4 chain with K13R, S14P, G16T, H50W, V181W, D184S
B18: NA05.15 (scFv)
chain: B4 chain with Q3K, K13R, G16T, V37L, H50W, F170Y, V181W, D184S, A194D
B19: NA05.9 (scFv)
chain: B4 chain with K13R, S14P, G16T, E42G, H50W, E136Q, D184S, A234G
B20: clone pSW134.1 (scFv)
chain: B4 chain with H50W, T100L, F107N, S226D
B21: clone pSW129.5 (scFv)
chain: B4 chain with H50W, T100L, T102L, S226D
B22: NA08.15 (CAB1.4) (scFv)
chain: B4 chain with H50W, S226D
B23: NA06.11 (scFv)
chain: B4 chain with H50W, V146M, D184S, A194D
B24: NA06.4 (scFv)
chain: B4 chain with Q3K, H50W, D184S
B25: NA06.12 (scFv)
chain: B4 chain with Q3K, H50W, E136Q, V146M, D184S
B26: NA06.2 (scFv)
chain: B4 chain with Q3K, E42G, H50W, V146M, D184S, A194D
B27: NA06.10 (scFv)
chain: B4 chain with Q3K, H50W, D184S, A194D

Each binder was assayed against T1, CEA (carcinoembryonic antigen, Biodesign Intl., Saco, Me.) (UniProt P06731 35-685) (assay: screen of library SW155).
T1 construct: also called immobilized CEA
T1 sequence: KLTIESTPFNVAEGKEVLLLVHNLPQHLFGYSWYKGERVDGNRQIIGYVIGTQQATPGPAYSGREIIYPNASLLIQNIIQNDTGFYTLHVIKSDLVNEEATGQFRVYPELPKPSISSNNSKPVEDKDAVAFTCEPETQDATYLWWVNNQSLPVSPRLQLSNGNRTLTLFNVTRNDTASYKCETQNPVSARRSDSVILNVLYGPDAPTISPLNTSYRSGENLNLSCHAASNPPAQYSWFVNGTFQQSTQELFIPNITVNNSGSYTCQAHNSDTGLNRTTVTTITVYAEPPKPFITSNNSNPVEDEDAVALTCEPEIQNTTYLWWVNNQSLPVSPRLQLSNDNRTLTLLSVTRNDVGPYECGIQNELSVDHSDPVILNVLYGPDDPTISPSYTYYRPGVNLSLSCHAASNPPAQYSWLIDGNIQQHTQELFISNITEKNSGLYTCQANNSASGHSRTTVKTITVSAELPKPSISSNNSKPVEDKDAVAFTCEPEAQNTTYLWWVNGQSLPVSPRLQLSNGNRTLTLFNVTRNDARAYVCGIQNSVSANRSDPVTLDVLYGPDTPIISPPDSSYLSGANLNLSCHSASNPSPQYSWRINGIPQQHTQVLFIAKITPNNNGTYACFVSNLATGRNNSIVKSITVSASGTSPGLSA
B1: binds.

What follows are binders tested against T1, CEA (carcinoembryonic antigen, …) (assay: CEA-coated plate at pH 6.5 and pH 7.4, bound BLA activity).
B2: binds.
B3: binds.
B4: binds.
B5: binds.
B6: binds.
B7: binds.
B8: binds.
B9: binds.
B10: binds.
B11: binds.
B12: binds.
B13: binds.

Each binder was assayed against T1, CEA (carcinoembryonic antigen, …) (assay: CEA-coated plate, bound BLA activity (nitrocefin), cell lysate).
B14: binds.
B15: binds.
B16: binds.
B17: binds.
B18: binds.
B19: binds.

Each binder was assayed against T1, CEA (carcinoembryonic antigen, …) (assay: screen of H3 site saturation mini-libraries for improved affinity).
B20: binds.
B21: binds.

What follows are binders tested against T1, CEA (carcinoembryonic antigen, …) (assay: CEA-coated plate, binding curves at pH 6.5 and pH 7.4, bound BLA activity).
B22: binds.

The binders below were run against T1, CEA (carcinoembryonic antigen, …) (assay: CEA-coated plate after thermolysin treatment of the lysate, bound BLA activity).
B23: binds.
B24: binds.
B25: binds.
B26: binds.
B27: binds.
